Reference: paper PMC4036194

Columns and labels:
[1] = target: Full-length C24A β3 mutant with a carboxyl-terminal Myc epitope tag; test: atomic force microscopy (AFM) imaging; Myc-tagged β3 (wild type or C24A) immunoisolated from tsA 201 detergent extract, diluted to ~40 pM, adsorbed to mica, imaged in air in tapping mode; molecular volumes of particles
[2] = target: mEos2-labeled acid-sensing ion channel hASIC (UniProt P78348); test: fluorescence photoactivated localization microscopy (FPALM) with pair correlation analysis; mEos2 fusions on the plasma membrane of fixed, transfected HEK293 cells; TIRF-PALM; 30 regions of 1 μm^2 on five cells; proteins per cluster

mEos2-labeled acid-sensing ion channel hASIC (from UniProt P78348 1-528) (natural protein), sequence (P78348 whole entry): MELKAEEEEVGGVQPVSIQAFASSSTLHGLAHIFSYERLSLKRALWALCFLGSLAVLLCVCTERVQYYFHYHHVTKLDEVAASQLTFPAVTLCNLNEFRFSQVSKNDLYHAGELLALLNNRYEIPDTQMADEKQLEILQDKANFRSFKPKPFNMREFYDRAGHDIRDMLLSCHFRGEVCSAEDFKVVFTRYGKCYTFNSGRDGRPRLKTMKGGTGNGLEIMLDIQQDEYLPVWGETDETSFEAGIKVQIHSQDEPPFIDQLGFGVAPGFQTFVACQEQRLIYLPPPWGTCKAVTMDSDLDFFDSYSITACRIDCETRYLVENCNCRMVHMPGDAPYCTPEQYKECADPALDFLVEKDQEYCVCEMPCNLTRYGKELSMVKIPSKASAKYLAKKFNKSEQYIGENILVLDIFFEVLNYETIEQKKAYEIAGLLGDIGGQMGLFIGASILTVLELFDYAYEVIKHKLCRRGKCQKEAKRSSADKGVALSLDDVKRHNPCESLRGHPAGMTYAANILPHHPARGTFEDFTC

Row | Substance | stoichiometry N [1] | stoichiometry N [2]
1 | Full-length C24A β3 mutant with a carboxyl-terminal Myc epitope tag (natural protein) | 2 | –
2 | mEos2-labeled acid-sensing ion channel hASIC (from UniProt P78348 1-528) (natural protein) | – | 3
